The target of one experiment is HLA-C*14:02. As to the kind of experiment: IEDB peptide-MHC binding, purified MHC/direct/fluorescence; filed as Kd, often an IC50 or EC50 that approximates it; ≥ and ≤ were set here for values at or beyond the usual limits of such assays. As to conditions: source organism: Influenza A virus (A/swine/Italy/1509-6/97(H1N1)).
The target in another experiment is HLA-C*06:02. The experiment is described as above. As to conditions: source organism: Influenza A virus (A/swine/Italy/1509-6/97(H1N1)).
Experiment [1] concerns the target HLA-B*07:02. The experiment in a line: IEDB peptide-MHC binding, purified MHC/competitive/fluorescence; filed as Kd, often an IC50 or EC50 that approximates it; ≥ and ≤ were set here for values at or beyond the usual limits of such assays. As to conditions: source organism: Influenza A virus (A/swine/Italy/1509-6/97(H1N1)).
A further experiment deals with HLA-C*04:01. The experiment in a line: IEDB peptide-MHC binding, purified MHC/direct/fluorescence; filed as Kd, often an IC50 or EC50 that approximates it; ≥ and ≤ were set here for values at or beyond the usual limits of such assays.
Another experiment has as its target HLA-C*12:03. Described as above.
The target in another experiment is HLA-C*03:03. The description is as above.
In experiment [2] the target is HLA-B*46:01. The experiment in a line: IEDB peptide-MHC binding, purified MHC/competitive/fluorescence; filed as Kd, often an IC50 or EC50 that approximates it; ≥ and ≤ were set here for values at or beyond the usual limits of such assays. As to conditions: source organism: Escherichia coli 536.
A further experiment has as its target HLA-A*02:03. As to the kind of experiment: IEDB peptide-MHC binding, purified MHC/competitive/radioactivity; filed as Kd, often an IC50 or EC50 that approximates it; ≥ and ≤ were set here for values at or beyond the usual limits of such assays. As to conditions: source organism: Vaccinia virus WR.
The next experiment deals with HLA-A*02:06. The experiment is described as above. As to conditions: source organism: Vaccinia virus WR.
A further experiment addresses HLA-A*02:02. The experiment is described as above. As to conditions: source organism: Vaccinia virus WR.
The next experiment concerns the target HLA-A*69:01. As to the kind of experiment: IEDB peptide-MHC binding, purified MHC/direct/fluorescence; filed as Kd, often an IC50 or EC50 that approximates it; ≥ and ≤ were set here for values at or beyond the usual limits of such assays.
For the next experiment, the target named is HLA-C*05:01. Described as above. The settings on record: source organism: Variola virus.
The target in another experiment is HLA-B*08:03. Described as above. The settings on record: source organism: Francisella tularensis subsp. tularensis FSC033.
A further experiment concerns the target HLA-B*58:01. The experiment is described as above.
The target of another experiment is HLA-A*31:01. The description is as above.
The next experiment deals with HLA-A*26:03. Described as above. As to conditions: source organism: Francisella tularensis subsp. tularensis FSC033.
In the next experiment the target is HLA-B*40:01. Described as above.
The target in another experiment is HLA-A*01:01. Described as above.
For another experiment, the target named is HLA-B*08:02. The experiment is described as above. As to conditions: source organism: Francisella tularensis subsp. tularensis FSC033.
For another experiment, the target named is HLA-A*26:01. The experiment is described as above.
The target in experiment [3] is HLA-B*27:05. The description is as above. As to conditions: source organism: Francisella tularensis subsp. holarctica LVS.
In the next experiment the target is HLA-B*44:02. Described as above. The settings on record: source organism: Francisella tularensis subsp. holarctica LVS.
Another experiment has as its target HLA-B*57:01. The experiment is described as above.
The next experiment deals with HLA-A*02:01. The description is as above.
The target in experiment [4] is HLA-A*11:01. The experiment is described as above. As to conditions: source organism: Francisella tularensis subsp. holarctica LVS.
Experiment [5] deals with HLA-B*07:02. Described as above. As to conditions: source organism: Francisella tularensis subsp. holarctica LVS.
For experiment [6], the target named is HLA-B*15:17. The experiment in a line: IEDB peptide-MHC binding, purified MHC/competitive/fluorescence; filed as Kd, often an IC50 or EC50 that approximates it; ≥ and ≤ were set here for values at or beyond the usual limits of such assays. The settings on record: source organism: Francisella tularensis subsp. tularensis FSC198.
A further experiment has as its target HLA-B*15:09. The description is as above. As to conditions: source organism: Francisella tularensis subsp. tularensis FSC198.
In a further experiment the target is HLA-B*39:01. Described as above. The settings on record: source organism: Francisella tularensis subsp. tularensis FSC198.
In experiment [7] the target is HLA-B*48:01. The experiment is described as above. The settings on record: source organism: Francisella tularensis subsp. tularensis FSC198.
For experiment [8], the target named is HLA-B*46:01. As to the kind of experiment: IEDB peptide-MHC binding, purified MHC/direct/fluorescence; filed as Kd, often an IC50 or EC50 that approximates it; ≥ and ≤ were set here for values at or beyond the usual limits of such assays. The settings on record: source organism: Bacillus anthracis.
The target in experiment [9] is HLA-B*15:17. Described as above. As to conditions: source organism: Bacillus anthracis.
The target in another experiment is HLA-A*03:01. The description is as above. The settings on record: source organism: Bacillus anthracis.
For experiment [10], the target named is HLA-B*48:01. The experiment is described as above. As to conditions: source organism: Bacillus anthracis.
The next experiment addresses HLA-B*51:01. The description is as above. The settings on record: source organism: Bacillus anthracis.
A further experiment concerns the target HLA-B*15:01. Described as above. The settings on record: source organism: Bacillus anthracis.
The next experiment has as its target HLA-B*18:01. Described as above. As to conditions: source organism: Bacillus anthracis.
In experiment [11] the target is HLA-B*27:05. As to the kind of experiment: IEDB peptide-MHC binding, purified MHC/competitive/fluorescence; filed as Kd, often an IC50 or EC50 that approximates it; ≥ and ≤ were set here for values at or beyond the usual limits of such assays. The settings on record: source organism: Escherichia coli APEC O1.
In experiment [12] the target is HLA-A*11:01. The experiment is described as above. The settings on record: source organism: Escherichia coli APEC O1.
The target of another experiment is HLA-A*26:02. As to the kind of experiment: IEDB peptide-MHC binding, purified MHC/direct/fluorescence; filed as Kd, often an IC50 or EC50 that approximates it; ≥ and ≤ were set here for values at or beyond the usual limits of such assays. The settings on record: source organism: Influenza A virus(A/swine/Shandong/fNY/2003(H9N2)).
In a further experiment the target is HLA-C*08:02. Described as above.
Another experiment deals with HLA-A*29:02. As to the kind of experiment: IEDB peptide-MHC binding, purified MHC/competitive/fluorescence; filed as Kd, often an IC50 or EC50 that approximates it; ≥ and ≤ were set here for values at or beyond the usual limits of such assays. As to conditions: source organism: Bacillus anthracis str. A0488.
For another experiment, the target named is HLA-A*24:03. The experiment in a line: IEDB peptide-MHC binding, purified MHC/direct/fluorescence; filed as Kd, often an IC50 or EC50 that approximates it; ≥ and ≤ were set here for values at or beyond the usual limits of such assays. As to conditions: source organism: Mycobacterium tuberculosis.
Setting [13] is: source organism: Escherichia coli 536.
Where [14] appears, read: source organism: Francisella tularensis subsp. holarctica LVS.
Where [15] appears, read: source organism: Bacillus anthracis.
The mark [16] stands for this setting: source organism: Yellow fever virus.

As for ATYQRTRAL, the Kd with HLA-C*14:02 amounted to 0.246 µM; with HLA-C*06:02, 0.075 µM; with HLA-B*07:02 [1], 0.197 µM.

As for FMFDSDEAM, the equilibrium dissociation constant (Kd) with HLA-C*04:01 (setting [13]) is ≥ 20 µM; with HLA-C*12:03 (setting [13]), 0.174 µM; with HLA-C*03:03 (setting [13]) it was 0.005 µM; with HLA-B*46:01 [2] it was 0.0292 µM.

As to KVDDTFYYV, the Kd in the experiment with HLA-A*02:03 was ≥ 78.1 µM; with HLA-A*02:06 it was ≥ 34.3 µM; with HLA-A*02:02 it was 1.85 µM; with HLA-A*69:01 (source organism: Camelpox virus CMS) it was 0.002 µM; with HLA-C*03:03 (source organism: Variola virus), ≥ 20 µM; with HLA-C*05:01, 0.003 µM.

As to REIGDISYL, the equilibrium dissociation constant (Kd) with HLA-B*08:03 is ≥ 20 µM; with HLA-B*58:01 (setting [14]), ≥ 20 µM; with HLA-A*31:01 (setting [14]) it was ≥ 20 µM; with HLA-A*26:03, ≥ 20 µM; in the experiment with HLA-B*40:01 (setting [14]) it was ≤ 0.001 µM; in the experiment with HLA-A*01:01 (setting [14]) it was ≥ 20 µM. In addition, the dissociation constant (Kd) with HLA-B*08:02, with HLA-A*69:01 (setting [14]), with HLA-A*26:01 (source organism: Francisella tularensis subsp. tularensis FSC033), with HLA-B*27:05 [3], in the experiment with HLA-B*44:02 and with HLA-B*57:01 (setting [14]) was ≥ 20 µM in each case. Besides, the Kd with HLA-A*02:01 (setting [14]) was ≥ 20 µM; with HLA-A*11:01 [4], ≥ 20 µM; in the experiment with HLA-B*07:02 [5], ≥ 20 µM; in the experiment with HLA-B*15:17 [6], ≥ 20 µM; with HLA-B*15:09 it was 2 µM; with HLA-B*39:01, 0.309 µM. In addition, the Kd in the experiment with HLA-B*48:01 [7] is ≥ 20 µM.

For the sequence TPRIANRLL, the equilibrium dissociation constant (Kd) with HLA-B*58:01 (setting [15]), in the experiment with HLA-A*31:01 (setting [15]), with HLA-B*40:01 (setting [15]), with HLA-A*01:01 (setting [15]), with HLA-A*69:01 (setting [15]) and with HLA-B*46:01 [8] was ≥ 20 µM throughout. In addition, the equilibrium dissociation constant (Kd) with HLA-B*15:17 [9], in the experiment with HLA-A*03:01, in the experiment with HLA-B*48:01 [10], in the experiment with HLA-B*57:01 (setting [15]), with HLA-A*02:01 (setting [15]) and with HLA-B*51:01 was ≥ 20 µM throughout. Further, the Kd was ≥ 20 µM in the experiment with HLA-B*15:01, ≥ 20 µM with HLA-B*18:01, ≥ 20 µM with HLA-B*27:05 [11] and 1.37 µM in the experiment with HLA-A*11:01 [12].

Consider TTVDHMAII, for which the Kd in the experiment with HLA-A*26:02 is 0.012 µM; in the experiment with HLA-A*26:01 (source organism: Influenza A virus (A/chicken/Beijing/nl/2002(H9N2))), 0.0678 µM.

With YMPDVLEKL, the Kd with HLA-C*12:03 (setting [16]), with HLA-C*08:02 (setting [16]) and in the experiment with HLA-C*03:03 (setting [16]) was ≥ 20 µM in each case.

As for YTVQGAGLM, the results for the Kd with HLA-C*08:02 (source organism: Bacillus anthracis str. A0488) and in the experiment with HLA-A*29:02 were ≥ 20 µM and 0.026 µM, respectively.

For YYIIETEHL, the equilibrium dissociation constant (Kd) with HLA-C*04:01 (source organism: Mycobacterium tuberculosis H37Ra) was ≥ 20 µM; in the experiment with HLA-A*24:03 it was 0.0002 µM.

A word on the Kd: it is the concentration at which binding is half-saturated.

The values are drawn from the Immune Epitope Database (IEDB).
